Like-named read-outs stand apart in the source and are kept apart here.

By Kd is commonly meant the free concentration of one partner at which half of the binding sites on the other are occupied at equilibrium, for simple one-to-one binding. Read a low Kd as tighter binding.

Assay [1] addresses T1, SARS-CoV-2 receptor-binding domain (RBD) of the spike protein (SARS-CoV-2, UniProt P0DTC2 319-541).
Assay [2] has as its target T1, SARS-CoV-2 receptor-binding domain …. The source holds these as a separate data set.
Assay [3] has the same target. The experiment in a line: cell-based or functional assay.
Assay [4] has the same target. This is another data set of the same source.
Assay [5] has the same target. The source holds these as a separate data set.

B1: SP1B4-U biparatopic nanobody construct (SP1B4 and U nanobodies on heterodimeric human IgG1 Fc) (bispecific antibody, V domains shown, not shown: a dimerising Fc or GST)
V domain 1: EVQLQASGGGFVQPGGSLRLSCAASGRAFGIYRMGWFRQAPGKEREFVSAISGGDAGHTRYADSVKGRFTISRDNSKNTVYLQMNSLRAEDTATYYCAYWDYNGVVPFFKYWGQGTQVTVSS
V domain 2: QVQLVESGGGLVQPGGSLRLSCAASGFTLDYYAIGWFRQAPGKEREGVSCISSSGGSTHFADSVKGRFTISRDNAKNTVYLQMNSLIPEDTAVYYCAAQSGSYYWCGSDWHEYEYWGQGTQVTVSS
Consider B1, for which the Kd in assay [1] and in assay [2] was 2200 pM throughout. The “Neutralization EC50” value in assay [3] is 25 pM.

B2: SP1D9-U biparatopic nanobody construct (SP1D9 and U nanobodies on heterodimeric human IgG1 Fc) (bispecific antibody, V domains shown, not shown: a dimerising Fc or GST)
V domain 1: EVQLQASGGGFVQPGGSLRLSCAASGRYDSYVRMGWFRQAPGKEREFVSAISGGGDKSTWYADSVKGRFTISRDNSKNTVYLQMNSLRAEDTATYYCANAQLGPAYDKIGYWGQGTQVTVSS
V domain 2: B1 V domain 2
For B2, binding in assay [4] was characterised by a dissociation constant (Kd) of 2000 pM.

B3: SP3H4-U biparatopic nanobody construct (SP3H4 and U nanobodies on heterodimeric human IgG1 Fc) (bispecific antibody, V domains shown, not shown: a dimerising Fc or GST)
V domain 1: EVQLQASGGGFVQPGGSLRLSCAASGTAYGWSRMGWFRQAPGKEREFVSAISRASAGYAQYADSVKGRFTISRDNSKNTVYLQMNSLRAEDTATYYCAFPLHDQGEPYGWYWGQGTQVTVSS
V domain 2: B1 V domain 2
Turning to B3, the Kd in assay [1] and in assay [5] was 790 pM each time. The “Neutralization EC50” value in assay [3] is 23 pM.

For the origin of these results see patent US12098186 (NATIONAL TECHNOLOGY AND ENGINEERING SOLUTIONS OF SANDIA, dated 2024).
